Assay [1] concerns the target T1, Bovine Submaxillary Mucin (BSM) (bovine).
T1 construct: Glycoprotein carrier of STn; also called BSM mucin; non-biotinylated BSM
In words: ELISA on BSM-coated wells (3 ug/mL), normalised dose response. The protocol: (§1) In order to evaluate the antibody binding to the target antigen STn, we employed an in vitro assay using a mucin that naturally expresses STn: Bovine Submaxillary Mucin (BSM). The humanized variants (V1, V2 and V3) were incubated using BSM-coated wells and binding was evaluated using ELISA assay.
(§2) An ELISA-assay was performed using Bovine Submaxillary Mucin (BSM). 96 well plates were coated using BSM [3 ug/mL], dissolved in 1×PBS. Absorbance was detected using a microplate reader at 450 nm. Absorbance values were normalized against the background and plotted as a % of the dose response effect versus the antibody dose (log scale) as shown in the graph. The EC50 (in ug/mL) was calculated for each condition.
Background: ELISA stands for enzyme-linked immunosorbent assay.

The target in assay [2] is T1, Bovine Submaxillary Mucin (BSM). In words: ELISA on BSM, OD against antibody concentration.
The target is the same in assay [3]. Nature of the assay: ELISA on BSM-coated wells. The protocol: as §1, §2

The record followed here is patent publication US20260258149A1 (BIONTECH, published 2026).

Several values for one entry are separate records, joined by “and”; a condition that tells them apart may be missing. Equal entries are not always repeated.

B1: humanized anti-STn antibody clone V1 (antibody, V domains shown)
VH: QVQLQESGPGLVKPSQTLSLTCTVIGYSITSGYYWNWIRQPPGKGLEWIGSINYDGSNIYNPSLKSRVTISRDTSKNQFSLKLSSVTAADTAVYYCARGGDYWGQGTTVTVSS
VL: EIVLTQSPATLSLSPGERATLSCSASSSVSYMHWFQQKPGQAPRRWIYDTSKRATGVPARFSGSGSGTDYTLTISSLEPEDFAAYYCQQWSSDPPMLTFGGGTKLEIK
notes: Humanized variant of L2A5; Variable domains were cloned into Absolute Antibody vectors 'of the appropriate species and type' and expressed in HEK 293; also called CBS-V1
One may read the EC50 as the concentration giving half of the maximal effect. Read a high EC50 as a need for much substance. As a reminder, the EC50 (read off the curve) is the concentration at which the effect is half-maximal. Consider B1, for which, in assay [1], the half-maximal effective concentration (EC50) was 0.324 µg/mL and 0.457 µg/mL. In addition, the “EC50 (read off the curve)” value in assay [2] is roughly 0.2 µg/mL.

B2: humanized anti-STn antibody clone V2 (antibody, V domains shown)
VH: QVQLQESGPGLVKPSQTLSLTCSVIGYSITSGYYWNWIRQPPGKGLEWIGSINYDGSNIYNPSLKDRVTISRDTSKNQFSLKLSSVTAADTAVYYCARGGDYWGQGTTVTVSS
VL: DIVLTQSPAILSLSPGERATLSCSASSSVSYMHWFQQKSGQAPKRWIYDTSKLASGVPARFSGSGSGTDYTLTISSLEAEDFAAYYCQQWSSDPPMLTFGGGTKLEIK
notes: Humanized variant of L2A5; also called CBS-V2
In the case of B2, the half-maximal effective concentration (EC50) in assay [1] was 0.0665 µg/mL and 0.137 µg/mL. Moreover, in assay [3], the “fold decrease in EC50 compared to V1 and V3 clones” value turned out to be 3 fold.

B3: humanized anti-STn antibody clone V3 (antibody, V domains shown)
VH: QVQLQESGPGLVKPSQTLSLTCSVIGYSITSGYYWNWIRQPPGKGLEWIGSINYDGSNIYNPSLKDRVTISRDTSKNQFSLKLSSVTAADTAVYYCARGGDYWGQGTTVTVSS
VL: EIVLTQSPATLSLSPGERATLSCSASSSVSYMHWFQQKPGQAPRRWIYDTSKRATGVPARFSGSGSGTDYTLTISSLEPEDFAAYYCQQWSSDPPMLTFGGGTKLEIK
notes: Humanized variant of L2A5
B3: the concentration giving a half-maximal response (EC50) in assay [1] was 0.344 µg/mL and 0.449 µg/mL.
